Consider 3 substances from paper PMC4303685.

The target of test [1] is complement C3c (human) (UniProt P01024). The test can be described thus: AUC; sedimentation velocity, c(s) analysis (SEDFIT), 50,000 rpm, 20 °C; 10 mM Hepes, 50 mM NaCl, pH 7.4; monomer to dimer, KD estimated.
Test [2] has the same target. The test can be described thus: AUC; sedimentation velocity, c(s) analysis; PBS in 2H2O (137 mM NaCl, pH 7.4); monomer to dimer, proportions by peak integration.
For test [3] the target is unchanged. The test is described as follows: AUC; sedimentation velocity, c(s) analysis (SEDFIT), 50,000 rpm, 20 °C; 10 mM Hepes, 137 mM NaCl, pH 7.4; monomer to dimer, KD estimated from peak integration.
The target is the same in test [4]. The test is described as follows: SPR; Biacore X100, C3c amine-coupled to CM5 chip, C3d as analyte, 25 °C, 30 μl/min, steady state analysis; 10 mM Hepes, 50 mM NaCl, pH 7.4.
For test [5], the target named is recombinant wild-type C3d (E1032) (human) (UniProt P01024). The test can be described thus: AUC; sedimentation velocity, c(s) analysis (SEDFIT), 50,000 rpm, 20 °C; 10 mM Hepes, 50 mM NaCl, pH 7.4; monomer to dimer, KD estimated.
For test [6] the target is unchanged. The test is described as follows: AUC; sedimentation velocity, c(s) analysis; PBS in 2H2O (137 mM NaCl, pH 7.4); monomer to dimer, proportions by peak integration.
Test [7] has the same target. The test is described as follows: AUC; sedimentation velocity, c(s) analysis (SEDFIT), 50,000 rpm, 20 °C; 10 mM Hepes, 137 mM NaCl, pH 7.4; monomer to dimer, KD estimated from peak integration.

In the case of “complement C3c (from UniProt P01024 23-667; P01024 749-954; P01024 1321-1663) (domain or fragment)”, in the test with complement C3c (human) [1], the dissociation constant (Kd) is 50 µM and the stoichiometry N was 2. In the test with complement C3c (human) [2], this substance registered a dimer proportion of 7% and a stoichiometry N of 2. Besides, in the test with complement C3c (human) [3], the dissociation constant (Kd) was 60 µM; the dimer, percent of the total is 6%; the stoichiometry N was 2.
“mutant C3d (A1032), C3d E1032A (from UniProt P01024 996-1287) (domain or fragment)”: in the test with complement C3c (human) [4], the fold less binding than wild-type C3d turned out to be 10 fold.
In the case of “recombinant wild-type C3d (E1032) (from UniProt P01024 996-1287) (domain or fragment)”, in test [5], the equilibrium dissociation constant (Kd) was 25 µM and the stoichiometry N is 2. For the same substance, in test [6], the dimer proportion stood at 12% and the stoichiometry N turned out to be 2. In test [7], the dimer, percent of the total is 10% and the stoichiometry N was 2. In the test with complement C3c (human) [4], this substance displayed a Kd of 51 µM.
